The source of these data is IntAct's records for PubMed 30260988.

Sequences and labels used below:
B1: CXXC motif containing zinc binding protein (Homo sapiens), Q9NWV4 (parent)
chain: MGKIALQLKATLENITNLRPVGEDFRWYLKMKCGNCGEISDKWQYIRLMDSVALKGGRGSASMVQKCKLCARENSIEILSSTIKPYNAEDNENFKTIVEFECRGLEPVDFQPQAGFAAEGVESGTAFSDINLQEKDWTDYDEKAQESVGIYEVTHQFVKC
partner: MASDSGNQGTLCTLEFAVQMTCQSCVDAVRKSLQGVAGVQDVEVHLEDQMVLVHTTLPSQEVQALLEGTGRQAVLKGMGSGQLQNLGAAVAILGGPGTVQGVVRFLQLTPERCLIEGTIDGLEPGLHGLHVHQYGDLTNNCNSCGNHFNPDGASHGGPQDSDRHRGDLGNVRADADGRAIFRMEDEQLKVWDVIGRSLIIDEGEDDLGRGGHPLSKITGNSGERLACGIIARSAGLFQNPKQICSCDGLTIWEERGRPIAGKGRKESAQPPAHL

The variants in test [1] derive from B1. The note with it: with ccs_human CCS.
The variants in test [2] derive from B1. Conditions: with ccs_human CCS. The source holds these as a separate data set.

As for MGKIALQLKATLENITNLRPVGEDFRWYLKMKCGNCGEISDKWQYIRLMDSVALKGGRGSASMVQKAKLAARENSIEILSSTIKPYNAEDNENFKTIVEFECRGLEPVDFQPQAGFAAEGVESGTAFSDINLQEKDWTDYDEKAQESVGIYEVTHQFVKC, the “effect of a mutation on the interaction” value in test [1] is recorded as “disrupting interaction strength”; in test [2], “causing an interaction”.

MGKIALQLKATLENITNLRPVGEDFRWYLKMKAGNAGEISDKWQYIRLMDSVALKGGRGSASMVQKCKLCARENSIEILSSTIKPYNAEDNENFKTIVEFECRGLEPVDFQPQAGFAAEGVESGTAFSDINLQEKDWTDYDEKAQESVGIYEVTHQFVKC: the “effect of a mutation on the interaction” value in test [1] is listed as “with no effect”; in test [2], “causing an interaction”.
